Results reported in the DeepSol protein solubility set.

Test: soluble on expression in E. coli; label from the status in PepcDB or PDB records

Sequence | soluble on expression in E. coli
MRFLHTADWQLGMTRHFLNGEAQPRYSASRREAVASLGEIAKRTGAEFVVVSGDVFEHNQLAPRDVSQSLEAMRAIGVPVYLLPGNHDPLDASSVYTSALFVAERPDNVVVLDRAGVHEVRPGVQIVAAPWRSKAPTSDLIGDVLADLPADGVTRVLVGHGGVDILDPDKNKPSLIRMAAVEDALARGAVHYVALGDKHSRTEVGGSGRVWYSGSPEVTNYDDIESDPGHVLVVDIDENDARRAVRVESEKVGRWRFVTLRRSVDTDRDIADLDLNLDLLDDKERTVVRLALTGSLTVTDKAKLDECLDRYARLFAALTTWERLEHHHHHH | not soluble
MIYIGLPQWSHPKWVRLGITSLEEYARHFNCVEGNTTLYALPKPEVVLRWREQTTDDFRFCFKFPATISHQAALRHCDDLVTEFLTRMSPLAPRIGQYWLQLPATFGPRELPALWHFLDSLPGEFNYGVEVRHPQFFAKGEEEQTLNRGLHQRGVNQVILDSRPVHAARPHSEAIRDAQRKKPKVPVHAVLTATNPLIRFIGSDDMTQNRELFQVWLQKLAQWHQTTTPYLFLHTPDIAQAPELVHTLWEDLRKTLPEIGAVPAIPQQSSLF | soluble
MKTFEELCQENYSRIYKYIFSMTGSKESTEDLIQEVFIAAYEKGEAFLRHEKPAAFLYKTARNMTVTYLKNLKRQRISAMEYLSENIPQDDTDLCETLLMELDRKIDETAYTGQVIGNLNTNQHNLYRQRYVEGKSIKEIASEEGVSETAMRMRLVRLRKEIQDIVKKLKLGEK | not soluble
MGHHHHHHSHMKEDKEVQTGYMNAQIEIIPCKICGDKSSGIHYGVITCEGCKGFFRRSQQSNATYSCPRQKNCLIDRTSRNRCQHCRLQKCLAVGMSRDAVKFGRMSKKQRDSLYAEVQKHRMQQQQRDHQQQPG | soluble
MSLAATNKRHSTSDKMHFPRSSLQPITTLGKSEFGEVFLAKAQGLEEGVAETLVLVKSLQSKDEQQQLDFRRELEMFGKLNHANVVRLLGLCREAEPHYMVLEYVDLGDLKQFLRISKSKDEKLKSQPLSTKQKVALCTQVALGMEHLSNNRFVHKDLAARNCLVSAQRQVKVSALGLSKDVYNSEYYHFRQAWVPLRWMSPEAILEGDFSTKSDVWAFGVLMWEVFTHGEMPHGGQADDEVLADLQAGKARLPQPEGCPSKLYRLMQRCWALSPKDRPSFSEIASALGDSTVDSKEGHHHHHH | soluble
MGSDKIHHHHHHMGIRSHLAIAAGKTSQWVLQTFFKGGSSYPGKLALKIDPKILDTLAKDYEIVVVTGTNGKTLTTALTVNILRQEFDEVLTNPTGANMEQGIVSTFLNAKAKKGQKKFAVLEIDEASLSRVTKYIQPKLFVFTNIFRDQMDRYGEIYTTYRLIMEGAAAAPEATILCNGDSPIFNSKETVNPRKYYGFNHLPPKEQLAHYNTDGVLCPKCNHILHYKMITYANLGDYYCPNCGFKRPELDVQLTEMVRMDNTSADFVIDGEEYGIAVGGMYNVYNALAATAVAEYYQVAPDKIRAGLAYDEKVFGRQETIKVGDKECTLVLVKNPVGLNQVIDMMGLAPYSFSLVSLLNANYADGIDVSWIWDGNHEAFADMDIPKVIAGGDRHEDMALRLKVAGIPEEKLLEIADLEQVISEIKTLPTDHVYILATYTAVLQLRKSLTAQGYIQGGMNGV | not soluble
MSLTTDTTSQTVLRSRKDVPSSDCWDTKSLYASREAWKKDLENLCGKEAPFWPHLNEKQFHIEQPSSLYKLLTEVFSIERTLEKLYVYAHLTHDEDISNQEATADLKSITYLLTSFSEEISWIQPALIALPQKISEELLTSPELQTYHFYLKKIFRLAPHTGTSREEKILASSSPALEVAYKTFSSLTDSEIPFGEAVDSEGKSHPLSHALSSLYMQSPDRELRKSAYQKQCQRYHGYRLSLANLLNGKIQAHLFNAKAHNYKSCLEAALFQNNISTSVVTTLIETVKQHTHLMTKYFQLKQKALGLPDFHFYDVYAPIAASEFARHYSYEEAVSLICDSLTPLGDNYVEALRKGLTSEGWVDKYENQNKRSGAYSSGCYDSKPYILMNYTGTLYDVSVVAHEGGHSMHSFLSHKHQQYHEAQYPIFLAEIASTLNETLLMEFLLKNAPSKEEKIAILSRSLDTIFATLFRQTLFADFELEAHSAAEQGIPLTEEFFSQSYKKLQHIFYGDCVTFDELSSIEWARIPHFYYNFYVYQYATGIIASLCFSEKILSKEAGAQEAYLTFLQSGGSDFPIEILKKSGLDMTSSAPMLKAFSYIERKLDELTNLLEGHHHHHH | soluble
MGSSHHHHHHSSGRENLYFQGMKLATLKDSTRDGKLVVVSKDLTRCSEVGHIARTLQAALDDWAHAGPRLERVAEGIETGAQPTMRFHEHDAASPLPRAFQWADGSAYVNHVELVRKARNAEMPASFWTDPLIYQGGSDSFLGPRDPILMADDAWGIDMEGEAAVIVDDVPMGATLDEAKAAIRLVMLVNDVSLRGLIPGELAKGFGFYQSKPSSAFSPVAVTPEELGEAWDGGKLHLPLHVDLNGEPFGRANAGIDMTFDFPQLIVHAARTRPLSAGTIIGSGTVSNKLEGGPGRPVSEGGAGYSCIAELRMIETIEGGAPKTQFLKFGDVVRIEMKDRTGHSIFGAIEQKVGKYERG | soluble
GAMGSGDTQLFNRAVSMVEKNKDIRSLLQCDDGITGKERLKAYGELITNDKWTRNRPIVSTKKLDKEGRTHHYMRFHVESKKKIALVHLEAKESKQNYQPDFINMYVDVPGEKRYYLIKPKLHPVSN | soluble
RWQEGNRITLLENGDQYYPALFAAIGRASRRVILESFIWFEDEVGRRLHAVLLEAARRGIQVEVLLDGYGSPDLSDEFVGELTAAGVIFRYYDPRPKLMGMRTNLFRRMHRKIVVIDDTTAFVGGINYSAEHMSDYGPEAKQDYAVQVEGPVVLDILQFELENLPNSETARRWWRRRRH | not soluble
MGSDKIHHHHHHMLLTDLVTPPDTALCAAAEEMARMASDPFLYNHVSRSYIFGALAARATGTQYDPELFYIAAMLHDLGLTETYMAEDRFEVDAAEAAAKFLAAQNVEQSRIDRVWDAIALHTTFSIPQKKSPEAALVQIGAGLDVGVMPHDHITPEVMEQVLDAYPRLGFKKAMEQALIKVYAAKPMTAMHNFGADVAHRHVPDFHPPHFCDVLHGADFPE | not soluble
MSQQSLISPSLQDILCKIQFNDTQFETTKKITRKRSNNFNPDRKKRNRITFDANQIDEMEKVFAENQYPDTMSREKLANKIQLHEERVQIWFQNRRAKYRREQKQTGHPYEPPSITKNPTGEKEKTQDCTTLTSASSPGPSNLSNDTLVSIEMAPKIGTKSVNLFPDQALSNTLNMIINANKNASENNYESEDQFNAESAKLLMLTLSNLFSLQNETTCE | not soluble
MLFHLPKLPAELRVSHLNARVNEQRKKIAQTTASKLEFLQLTQQLVKEAKIRKKNNQKIFVLDFKGDIQASAVDQLREEITLILATAKSGKDRVVLRLESPGGMVHGYGLAAAQLVRLRDAGFHLTIVVDKVAASGGYMMACIANEIVSAPFAILGSIGVVAQVPNFNRLLKEHNVDFELYTAGEYKRTVTMFGENTPEGKAKFEEELKQTHALFKHFVEKYRPQLNVEKVATGEHWYGQDALDLNLVDKLQTSDEYLLSLLPQHDVYVITTRKKPTLGERLGLQAAQLADSFIPAVMNKVVESLVNANSHLVQMRDPKILEHHHHHH | not soluble
MGIMELARIDLSRDDLDKRIGGGIPHGSLIIIEGEESTGKSVLCQRLAYGFLQNRYSVTYVSTQLTTLEFIKQMNSLNYSINKKLLSGALLYIPVYPLIADNKKKDGFLKKVMETRAFYEKDVIIFDSISALIANDASEVNVDDLMAFFKRITALKKIIICTVNPKELPESVLTIIRTSATMLIRTELFTFGGDLKNLAKILKYNMAPGSYQKNIVFRVEPKIGIAVEIASVALEHHHHHH | soluble
MGSDKIHHHHHHMAIETILVINKSGGLIYQRNFTNDEQKLNSNEYLILASTLHGVFAIASQLTPKALQLTQQTNIENTIPYIPYVGMSSNRSDTRNGGGNNNKHTNNEKLGSFKGDDFFKEPFTNWNKSGLRQLCTDQFTMFIYQTLTGLKFVAISSSVMPQRQPTIATTDKPDRPKSTSNLAIQIADNFLRKVYCLYSDYVMKDPSYSMEMPIRSNLFDEKVKKMVENLQ | not soluble
MVLSRHVIITPCPDRPGTSILFSAKRGALILVDDELLAAIGAGGLDADEEQTLAELGFLVPDHDSEQQEMCSFVDESNRASRSFAALIILNLSCNLACSYCFEGNRRGAHFMDDDTADRLVAYLVSGPVAEGRSLSLRFYGGEPLLSVPTIRRIARPLKKVMDARGLSFSFSLTTNGTLLTRELVEELIPLGLVGATVTLDGPPDIHDAARPFVGGEGSFSVIFANLKAVADLIALEIGGNFTPETYREYPRLFDLLVAEGLGPERLALVRFNAVMSAGENRALPEFTGGCASVNEPWLKDATLFIREELLRRGFPAPGLSPHYCAIEAEDSLIVNHDGTFYRCPAFIGIEGLAAGSLDDGLSDHAASHGLGAWKNEECLSCAYLPLCFGGCRYYGYLEHGRIDRVSCGRDLFDAIVGPFLALEVKYRHQPGEDASDTDGDSD | not soluble
MSEPIPPFRYAPIVCSEQSTIVAEFVPEASGVREAGYQSEAELEAAFITQLQGQAYEYLSITSEAALLANLRRQLEKLNKVTLSDAEWEGFFSTCIAGAHDGIVQKTARIQEDHVQVLKRDDGTIKNMCLLDKGNIHNNILQVMNQYAVEGARGNRYDVTVLVNGLPMVHVELKRRGVDIREAFNQINRYQRDSFWAGSGLFDYVQLFVISNGTLTKYYSNTVRAGHVEEQSNKRSKSKTSNSFSFAIWWADAKNQPITELTSFTKTFFAKHSLLNVLTKYCVFNANRKLLVMRPYQIVAAERILQRIVTATHQQQLGTVAAGGYIWHTTGSGKTLTSFKVAQLACGLGVIDKVLFVVDRKDLDYQTMREYESFEKGAANSNTSTAVLQRQLEDSDVRIIITTIQKLSRFVAKHKQHPVYGAHVAVIFDECHRSQFGDMHTEITRAFQRYHLFGFTGTPIFAENAGSTQNPMRRTTQQTFGDTLHTYTIVDAINDKTVLPFRIDYINTIKSQPNINDKQVAAIDTERALLAPERIRQIVSYIREHFDQKTKRASIYRHEGQRLQGFNALLATASIDAAKRYYAELMAQQKDLPEAQRLKVGLIYSVAANEGDGDELLAEEEFETERLDQDARNFLEAAIQDYNALFGTSFDTSADKFQNYYKDVSERLKKRKLDILIVVNMFLTGFDATTLNTLWVDKRLKAHGLIQAYSRTNRILNSVKSYGNIVSFRNLEQETNEALALFGNKDAKGIVLLRPYAEYYKEYEERVGELVAAFPLGKVIVGEAAQKAFITLFGSILRLKNILTAFDDFAGQEVLTEREFQDYQSLYLNLYAEFRSASAAEKESINDDVVFEIELIKQVEINVDFILLLVEQYVKKKGTGEDKDIRATIERAIHSSPSLRNKKELIEQFVDAVSMKATVDAQWQAFVAVKQSQELEGIIAEENLNAEATREFIANAFRDGSIPATGTAITKILPPVSRFSKNNGHAAKKQTVLDKLATFFERYFGLV | soluble
